Assay [1] concerns the target Human TNFα (human) (UniProt P01375). The assay is described as follows: Binding ELISA to hTNFα. On the technique in general: ELISA stands for enzyme-linked immunosorbent assay.
Assay [2] deals with FcγRIIIA (CD16a, F167) (UniProt P08637). The assay is described as follows: SPR, heterogenous ligand model, Mean KD1. (In SPR one partner is held on a chip, and binding of the other changes the refractive index at the surface.)
Assay [3] addresses FcγRIIIA (CD16a, V167) (UniProt P08637). Briefly: SPR, heterogenous ligand model, Mean KD1.
Assay [4] concerns the target FcγRI (CD64) (UniProt P12314). Briefly: SPR, heterogenous ligand model, Mean KD1.
For assay [5], the target named is Macaque TNFα (macaque) (UniProt P79337). The assay is described as follows: SPR, macaque TNFα, reference.
Assay [6] addresses FcγRIIA (CD32a, H167) (UniProt P12318). The assay is described as follows: SPR, steady state model, Mean.
The target in assay [7] is FcRn (FCGRT&B2M) (UniProt P55899). Briefly: SPR, steady state model, Mean.
For assay [8], the target named is FcγRIIB (CD32b) (UniProt P31994). Briefly: SPR, steady state model, Mean.
Assay [9] addresses FcγRIIIA (CD16a, F167) (UniProt P08637). The assay is described as follows: SPR, heterogenous ligand model, Mean KD2.
The target in assay [10] is FcγRIIIA (CD16a, V167) (UniProt P08637). The assay is described as follows: SPR, heterogenous ligand model, Mean KD2.
The target in assay [11] is FcγRI (CD64) (UniProt P12314). Briefly: SPR, heterogenous ligand model, Mean KD2.
Assay [12] deals with Macaque TNFα (macaque) (UniProt P79337). Briefly: ELISA, macaque TNFα, reference.
The target in assay [13] is FcγRIIIB (CD16b) (UniProt O75015). Briefly: SPR, Mean (one KD printed).
Assay [14] has as its target Human TNFα (human) (UniProt P01375). Briefly: cell-based or functional assay.
The target of assay [15] is FcγRIIIA (CD16a, F167) (UniProt P08637). Briefly: SPR, heterogenous ligand model, KD2, against HUMIRA.
The target in assay [16] is FcγRIIIA (CD16a, V167) (UniProt P08637). Described as above.
For assay [17], the target named is FcγRI (CD64) (UniProt P12314). Described as above.
In assay [18] the target is Macaque TNFα (macaque) (UniProt P79337). The assay is described as follows: SPR, macaque TNFα, relative to HUMIRA.
Assay [19] deals with FcγRIIIA (CD16a, F167) (UniProt P08637). Briefly: SPR, heterogenous ligand model, KD1, against HUMIRA.
The target of assay [20] is FcγRIIIA (CD16a, V167) (UniProt P08637). The description is as above.
The target in assay [21] is FcγRI (CD64) (UniProt P12314). The assay is described as above.
For assay [22], the target named is FcγRIIA (CD32a, H167) (UniProt P12318). Briefly: SPR, steady state model, against HUMIRA.
The target in assay [23] is FcRn (FCGRT&B2M) (UniProt P55899). Briefly: SPR, steady state model, against HUMIRA.
In assay [24] the target is FcγRIIB (CD32b) (UniProt P31994). Briefly: SPR, steady state model, against HUMIRA.
In assay [25] the target is Human TNFα (human) (UniProt P01375). Briefly: SPR, human TNFα, relative to HUMIRA.
Assay [26] deals with Macaque TNFα (macaque) (UniProt P79337). The assay is described as follows: ELISA, macaque TNFα, relative to HUMIRA.
For assay [27], the target named is FcγRIIIB (CD16b) (UniProt O75015). The assay is described as follows: SPR, against HUMIRA.
In assay [28] the target is Human TNFα (human) (UniProt P01375). Briefly: ELISA, human TNFα, relative to HUMIRA.

Adalimumab K84N (A-84S) (antibody): the Normalized EC50 vs HUMIRA in the assay with Human TNFα (human) [1] was found to be 121%.
As a reminder, the Kd is the free concentration of one partner at which half of the binding sites on the other are occupied at equilibrium, for simple one-to-one binding. Lower therefore signals a tighter complex. Regarding HUMIRA (adalimumab) (antibody), the Kd with FcγRIIIA (CD16a, F167) [2] was 260 nM; with FcγRIIIA (CD16a, V167) [3], 80.1 nM; with FcγRI (CD64) [4], 0.566 nM; with FcγRIIA (CD32a, H167) [6] it was 723 nM; with FcRn (FCGRT&B2M) [7] it was 778 nM; with FcγRIIB (CD32b) [8] it was 3040 nM. The Kd with FcγRIIIA (CD16a, F167) [9] was 1110 nM; with FcγRIIIA (CD16a, V167) [10], 76.6 nM; with FcγRI (CD64) [11], 6.86 nM; with FcγRIIIB (CD16b) [13], 1650 nM. The substance also came in with a Rel. binding affinity with Macaque TNFα (macaque) [5] of 100%. Further, the Rel. binding with Macaque TNFα (macaque) [12] was found to be 100%.
With “Adalimumab K84N-D86N (A-8486S) (antibody)”, the equilibrium dissociation constant (Kd) in the assay with FcγRIIIA (CD16a, F167) [2] was found to be 12.2 nM; with FcγRIIIA (CD16a, V167) [3], 2.69 nM; in the assay with FcγRI (CD64) [4], 0.326 nM; with FcγRIIA (CD32a, H167) [6], 785 nM; with FcRn (FCGRT&B2M) [7] it was 1100 nM; with FcγRIIB (CD32b) [8] it was 2200 nM. The Kd with FcγRIIIA (CD16a, F167) [9] worked out at 123 nM; in the assay with FcγRIIIA (CD16a, V167) [10] it was 27.4 nM; in the assay with FcγRI (CD64) [11] it was 6.27 nM; with FcγRIIIB (CD16b) [13], 152 nM. In the assay with Human TNFα (human) [14], the L929 apoptosis, Rel. IC50 was 89%. Moreover, the Fold change (KD(HUMIRA)/KD(A-8486S)) stood at 9 fold with FcγRIIIA (CD16a, F167) [15]; 2.8 fold with FcγRIIIA (CD16a, V167) [16]; 1.1 fold in the assay with FcγRI (CD64) [17]; 21.3 fold with FcγRIIIA (CD16a, F167) [19]; 29.8 fold with FcγRIIIA (CD16a, V167) [20]; 1.7 fold with FcγRI (CD64) [21]. In addition, the Fold change (KD(HUMIRA)/KD(A-8486S)) with FcγRIIA (CD32a, H167) [22] came to 0.9 fold; with FcRn (FCGRT&B2M) [23], 0.7 fold; with FcγRIIB (CD32b) [24], 1.4 fold; with FcγRIIIB (CD16b) [27], 10.9 fold. The Rel. binding affinity (KD(HUMIRA)/KD(A-8486S)*100) was determined as 902% with FcγRIIIA (CD16a, F167) [15]; 280% in the assay with FcγRIIIA (CD16a, V167) [16]; 109% with FcγRI (CD64) [17]; 2130% in the assay with FcγRIIIA (CD16a, F167) [19]; 2980% in the assay with FcγRIIIA (CD16a, V167) [20]; 174% with FcγRI (CD64) [21]. For the same substance, the Rel. binding affinity (KD(HUMIRA)/KD(A-8486S)*100) came out at 92% in the assay with FcγRIIA (CD32a, H167) [22]; 71% with FcRn (FCGRT&B2M) [23]; 138% with FcγRIIB (CD32b) [24]; 1090% in the assay with FcγRIIIB (CD16b) [27]. The Rel. binding affinity with Macaque TNFα (macaque) [18] was 77%; in the assay with Human TNFα (human) [25] it was 84%. In the assay with Human TNFα (human) [1], this substance showed a Normalized EC50 vs HUMIRA of 116%. Moreover, the Rel. binding came to 99% with Macaque TNFα (macaque) [26] and 86% with Human TNFα (human) [28].

These data come from patent US20240067714A1.
